Results reported in doi:10.1101/2022.10.08.511438.
Blank lines part the entries; values can stand above or below the substance they belong to.

Legend:
[1] = molecular target: dihydrolipoyl succinyltransferase (E2o), core of the oxoglutarate dehydrogenase complex, Chaetomium thermophilum (C. thermophilum (endogenous in mycelium lysate)); test: label-free MS quantitation
[2] = molecular target: dihydrolipoyl succinyltransferase (E2o), core of the oxoglutarate dehydrogenase complex, Chaetomium thermophilum (C. thermophilum (endogenous in mycelium lysate)); test: cryo-EM structure

- stoichiometry N (E3 dimers relative to 24 E2o subunits) [1]: 4
Substance: dihydrolipoyl dehydrogenase (E3), Chaetomium thermophilum (enzyme)

- stoichiometry N [2]: 24 subunits
Substance: dihydrolipoyl succinyltransferase (E2o), core of the oxoglutarate dehydrogenase complex, Chaetomium thermophilum (enzyme)

- stoichiometry N (E1o dimers around the 24-mer E2o core) [1]: 9
- stoichiometry N (E1o dimers relative to 24 E2o subunits) [1]: < 10
Substance: oxoglutarate dehydrogenase (E1o) of the oxoglutarate dehydrogenase complex (OGDHc), Chaetomium thermophilum (enzyme)
